Assay results: publication PMC7010799
pKd: −log10 of the molar value.

Columns and labels:
[1] = target: human NatA complex (hNAA15/hNAA10) (human) (UniProt Q9BXJ9)
[2] = target: human NatA complex (hNAA15/hNAA10) (human) (UniProt Q9BXJ9); assay: ITC; MicroCal iTC200, 20 °C; 25 mM HEPES pH 7.0, 200 mM NaCl, 1 mM DTT; 15 μM hNatA or hNatE in the cell, 150 μM MBP-HYPK in the syringe

human NatA complex (hNAA15/hNAA10) (human), sequence (Q9BXJ9 whole entry, chain 1 of 2): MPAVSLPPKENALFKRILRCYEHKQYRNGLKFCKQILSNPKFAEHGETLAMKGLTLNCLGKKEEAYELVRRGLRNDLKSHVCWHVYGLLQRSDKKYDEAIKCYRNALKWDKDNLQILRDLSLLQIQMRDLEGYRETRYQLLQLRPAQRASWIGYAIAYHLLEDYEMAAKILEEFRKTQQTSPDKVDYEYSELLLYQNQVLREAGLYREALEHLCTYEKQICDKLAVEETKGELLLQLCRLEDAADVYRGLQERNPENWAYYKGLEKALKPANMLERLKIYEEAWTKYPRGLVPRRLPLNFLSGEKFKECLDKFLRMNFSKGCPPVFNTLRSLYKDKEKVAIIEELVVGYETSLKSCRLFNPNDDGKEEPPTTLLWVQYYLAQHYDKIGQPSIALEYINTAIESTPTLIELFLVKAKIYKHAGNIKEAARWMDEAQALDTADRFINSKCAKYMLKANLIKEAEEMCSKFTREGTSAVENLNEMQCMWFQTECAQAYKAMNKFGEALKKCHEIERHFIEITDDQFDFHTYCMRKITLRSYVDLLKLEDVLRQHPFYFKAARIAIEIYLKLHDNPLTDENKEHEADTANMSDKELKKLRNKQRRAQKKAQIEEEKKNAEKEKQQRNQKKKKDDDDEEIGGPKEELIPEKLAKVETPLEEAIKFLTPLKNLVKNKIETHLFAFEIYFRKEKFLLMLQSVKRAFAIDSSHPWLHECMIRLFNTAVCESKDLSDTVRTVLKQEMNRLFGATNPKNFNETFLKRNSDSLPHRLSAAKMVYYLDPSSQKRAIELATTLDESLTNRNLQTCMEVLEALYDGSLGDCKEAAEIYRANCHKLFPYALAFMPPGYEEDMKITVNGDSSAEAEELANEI
human NatA complex (hNAA15/hNAA10) (human), sequence (P41227 whole entry, chain 2 of 2, further chain): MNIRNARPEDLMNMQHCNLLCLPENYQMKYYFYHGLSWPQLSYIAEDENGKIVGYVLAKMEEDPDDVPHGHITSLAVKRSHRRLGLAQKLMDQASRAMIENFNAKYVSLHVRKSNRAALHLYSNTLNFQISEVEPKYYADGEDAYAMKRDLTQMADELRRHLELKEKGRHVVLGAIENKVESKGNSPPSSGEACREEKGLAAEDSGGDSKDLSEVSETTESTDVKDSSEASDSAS
maltose-binding protein (MBP) tagged HYPK (from UniProt Q9NX55 1-121) (natural protein), sequence (Q9NX55 whole entry): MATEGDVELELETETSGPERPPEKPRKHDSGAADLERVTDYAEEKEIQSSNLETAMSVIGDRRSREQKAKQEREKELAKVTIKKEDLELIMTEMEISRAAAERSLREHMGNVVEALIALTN
maltose-binding protein (MBP) tagged HYPK (from UniProt Q9NX55 1-121) (natural protein; other documents disagree on this pair), sequence (Q9NX55 whole entry): as above

Row | Substance | inhibition of hNatA (100 nM) acetylation activity against SASE peptide, MBP-HYPK titrated [1] | pKd [2]
1 | maltose-binding protein (MBP) tagged HYPK (from UniProt Q9NX55 1-121) (natural protein) | 90% | –
2 | maltose-binding protein (MBP) tagged HYPK (from UniProt Q9NX55 1-121) (natural protein; other documents disagree on this pair) | – | 7.52
